Ten molecules from patent US20220332824A1 (published 2022) can be followed below.

Where a chain is given by its changes, count along the chain named.

The target of one assay is human PD-1 (human, UniProt Q15116 25-288). The assay is described as follows: FACS binding, CHO-K1 cells expressing human PD-1. For orientation: A flow cytometer gives signals particle by particle.
For a further assay, the target named is CD47 (UniProt Q08722 19-323). The assay can be described thus: FACS.
Chain of CD47 (Q08722 19-323): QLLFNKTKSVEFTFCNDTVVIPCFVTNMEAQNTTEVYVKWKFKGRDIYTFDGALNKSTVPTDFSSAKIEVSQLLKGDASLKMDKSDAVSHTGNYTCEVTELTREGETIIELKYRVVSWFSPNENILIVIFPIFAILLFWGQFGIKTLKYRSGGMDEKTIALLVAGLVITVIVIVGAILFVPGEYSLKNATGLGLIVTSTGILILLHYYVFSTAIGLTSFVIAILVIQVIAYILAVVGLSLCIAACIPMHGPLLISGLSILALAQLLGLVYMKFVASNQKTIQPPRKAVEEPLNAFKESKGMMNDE

Chain of human PD-1 (Q15116 25-288): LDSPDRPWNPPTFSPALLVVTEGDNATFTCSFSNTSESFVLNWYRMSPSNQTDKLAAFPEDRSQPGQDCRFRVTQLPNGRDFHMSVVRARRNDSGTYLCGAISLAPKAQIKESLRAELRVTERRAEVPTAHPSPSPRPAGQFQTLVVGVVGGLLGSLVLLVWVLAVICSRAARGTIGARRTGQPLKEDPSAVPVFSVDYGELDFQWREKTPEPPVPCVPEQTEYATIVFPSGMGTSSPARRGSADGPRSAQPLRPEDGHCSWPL

B1: bispecific antibody PD1a-E-LC (bispecific antibody)
heavy: not shown
light: EIVLTQSPATLSLSPGERATLSCRASENVGTYISWYQQKPGQAPRLLIYGASNRYTGIPARFSGSGSGTDFTLTISSLEPEDFAVYYCGESYGHLYTFGGGTKVEIKRTVAAPSVFIFPPSDEQLKSGTASVVCLLNNFYPREAKVQWKVDNALQSGNSQESVTEQDSKDSTYSLSSTLTLSKADYEKHKVYACEVTHQGLSSPVTKSFNRGECEPKSSDKTHTSPPSPEVQLVESGGGLVQPGGSLRLSCAVSGNIYNRNFMGWFRQAPGKGREGVSAIYTGTSRTYYADSVKGRFTISRDNAKNTVYLQMNSLRPEDTAVYYCAADLRDGFWDTGVWNTWGQGTLVTVSS
For orientation: EC50 means the concentration at which the effect is half-maximal. The low end stands for higher potency in that assay, the high end for lower potency in that assay. In turn, B1 registered an EC50 with human PD-1 of 7.74 nM.

B2: bispecific antibody PD1b-E-LC (bispecific antibody)
heavy: not shown
light: B1 light with R274L, A304S, P317A, D331E
The molecule B2 displayed an EC50 with human PD-1 of 2.34 nM.

B3: bispecific antibody PD1b-E-HN (bispecific antibody)
heavy: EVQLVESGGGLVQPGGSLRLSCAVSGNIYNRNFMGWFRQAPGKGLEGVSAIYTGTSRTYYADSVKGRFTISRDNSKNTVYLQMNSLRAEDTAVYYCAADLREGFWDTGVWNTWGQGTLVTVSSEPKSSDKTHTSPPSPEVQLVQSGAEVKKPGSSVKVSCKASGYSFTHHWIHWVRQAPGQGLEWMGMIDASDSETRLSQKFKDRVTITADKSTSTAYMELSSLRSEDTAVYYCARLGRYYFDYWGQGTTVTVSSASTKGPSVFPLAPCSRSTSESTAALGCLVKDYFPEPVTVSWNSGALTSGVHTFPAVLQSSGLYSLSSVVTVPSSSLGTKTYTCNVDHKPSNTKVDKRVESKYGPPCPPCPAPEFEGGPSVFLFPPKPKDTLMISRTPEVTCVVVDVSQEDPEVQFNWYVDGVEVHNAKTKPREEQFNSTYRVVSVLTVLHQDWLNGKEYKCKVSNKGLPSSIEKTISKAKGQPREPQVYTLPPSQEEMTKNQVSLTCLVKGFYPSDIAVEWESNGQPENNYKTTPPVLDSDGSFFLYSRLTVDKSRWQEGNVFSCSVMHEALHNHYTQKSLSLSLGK
light: EIVLTQSPATLSLSPGERATLSCRASENVGTYISWYQQKPGQAPRLLIYGASNRYTGIPARFSGSGSGTDFTLTISSLEPEDFAVYYCGESYGHLYTFGGGTKVEIKRTVAAPSVFIFPPSDEQLKSGTASVVCLLNNFYPREAKVQWKVDNALQSGNSQESVTEQDSKDSTYSLSSTLTLSKADYEKHKVYACEVTHQGLSSPVTKSFNRGEC
As for B3, the concentration for a half-maximal effect (EC50) with CD47 is 1.78 nM; with human PD-1 it was 2.82 nM.

B4: bispecific antibody PD1a-E-HC (bispecific antibody)
heavy: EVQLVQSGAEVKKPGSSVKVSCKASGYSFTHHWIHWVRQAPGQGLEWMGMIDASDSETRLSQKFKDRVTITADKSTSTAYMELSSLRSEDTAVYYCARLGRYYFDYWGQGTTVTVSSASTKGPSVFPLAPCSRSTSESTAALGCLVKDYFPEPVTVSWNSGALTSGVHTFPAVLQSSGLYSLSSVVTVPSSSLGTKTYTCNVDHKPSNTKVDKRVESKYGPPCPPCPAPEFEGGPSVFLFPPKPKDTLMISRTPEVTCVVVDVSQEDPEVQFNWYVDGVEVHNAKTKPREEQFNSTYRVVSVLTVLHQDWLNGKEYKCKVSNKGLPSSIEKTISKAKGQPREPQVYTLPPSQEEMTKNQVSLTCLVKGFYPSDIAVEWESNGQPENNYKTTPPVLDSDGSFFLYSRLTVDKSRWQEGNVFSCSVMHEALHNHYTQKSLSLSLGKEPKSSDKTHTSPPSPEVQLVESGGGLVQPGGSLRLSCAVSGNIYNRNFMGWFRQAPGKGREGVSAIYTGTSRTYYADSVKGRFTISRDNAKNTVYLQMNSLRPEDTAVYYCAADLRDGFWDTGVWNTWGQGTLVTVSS
light: B3 light
Regarding B4, the values for the EC50 with CD47 and in the assay with human PD-1 were 1.09 nM and 2.6 nM, respectively.

B5: bispecific antibody PD1a-G15-HC (bispecific antibody)
heavy: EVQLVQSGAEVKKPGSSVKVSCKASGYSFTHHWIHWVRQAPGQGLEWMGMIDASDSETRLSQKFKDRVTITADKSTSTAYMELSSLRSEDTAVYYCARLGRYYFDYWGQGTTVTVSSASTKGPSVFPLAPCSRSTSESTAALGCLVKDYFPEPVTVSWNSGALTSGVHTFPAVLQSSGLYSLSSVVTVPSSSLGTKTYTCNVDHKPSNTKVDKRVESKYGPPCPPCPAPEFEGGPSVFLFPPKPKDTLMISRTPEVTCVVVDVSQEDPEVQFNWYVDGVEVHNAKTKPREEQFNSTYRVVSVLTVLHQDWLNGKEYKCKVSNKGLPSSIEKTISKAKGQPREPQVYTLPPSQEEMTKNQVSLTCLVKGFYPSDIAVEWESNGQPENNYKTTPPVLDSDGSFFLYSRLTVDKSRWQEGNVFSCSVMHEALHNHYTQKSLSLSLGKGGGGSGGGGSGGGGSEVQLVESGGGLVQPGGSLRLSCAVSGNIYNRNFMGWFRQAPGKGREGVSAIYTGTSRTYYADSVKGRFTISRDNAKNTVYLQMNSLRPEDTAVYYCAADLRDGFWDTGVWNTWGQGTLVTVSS
light: B3 light
For the molecule B5, the EC50 in the assay with CD47 came out at 0.968 nM; with human PD-1, 4.75 nM.

B6: bispecific antibody PD1a-E-HN (bispecific antibody)
heavy: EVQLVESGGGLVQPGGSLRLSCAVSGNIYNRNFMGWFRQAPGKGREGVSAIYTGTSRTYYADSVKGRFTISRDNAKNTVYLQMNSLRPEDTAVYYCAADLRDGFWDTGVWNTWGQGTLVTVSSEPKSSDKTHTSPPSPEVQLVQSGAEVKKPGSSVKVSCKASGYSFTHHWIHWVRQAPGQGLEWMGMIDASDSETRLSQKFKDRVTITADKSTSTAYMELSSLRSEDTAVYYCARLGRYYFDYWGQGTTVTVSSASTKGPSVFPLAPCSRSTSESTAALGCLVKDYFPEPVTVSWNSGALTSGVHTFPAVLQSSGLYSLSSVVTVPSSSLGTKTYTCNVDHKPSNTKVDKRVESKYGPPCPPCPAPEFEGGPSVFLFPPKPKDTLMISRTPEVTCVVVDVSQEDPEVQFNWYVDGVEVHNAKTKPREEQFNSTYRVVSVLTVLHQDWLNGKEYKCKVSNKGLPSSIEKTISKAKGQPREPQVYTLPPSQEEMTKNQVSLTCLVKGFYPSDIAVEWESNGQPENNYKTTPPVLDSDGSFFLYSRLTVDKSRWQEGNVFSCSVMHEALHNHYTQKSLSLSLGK
light: B3 light
With B6, the concentration giving a half-maximal response (EC50) with CD47 was 1.41 nM; with human PD-1, 4.15 nM.

B7: bispecific antibody PD1b-E-HC (bispecific antibody)
heavy: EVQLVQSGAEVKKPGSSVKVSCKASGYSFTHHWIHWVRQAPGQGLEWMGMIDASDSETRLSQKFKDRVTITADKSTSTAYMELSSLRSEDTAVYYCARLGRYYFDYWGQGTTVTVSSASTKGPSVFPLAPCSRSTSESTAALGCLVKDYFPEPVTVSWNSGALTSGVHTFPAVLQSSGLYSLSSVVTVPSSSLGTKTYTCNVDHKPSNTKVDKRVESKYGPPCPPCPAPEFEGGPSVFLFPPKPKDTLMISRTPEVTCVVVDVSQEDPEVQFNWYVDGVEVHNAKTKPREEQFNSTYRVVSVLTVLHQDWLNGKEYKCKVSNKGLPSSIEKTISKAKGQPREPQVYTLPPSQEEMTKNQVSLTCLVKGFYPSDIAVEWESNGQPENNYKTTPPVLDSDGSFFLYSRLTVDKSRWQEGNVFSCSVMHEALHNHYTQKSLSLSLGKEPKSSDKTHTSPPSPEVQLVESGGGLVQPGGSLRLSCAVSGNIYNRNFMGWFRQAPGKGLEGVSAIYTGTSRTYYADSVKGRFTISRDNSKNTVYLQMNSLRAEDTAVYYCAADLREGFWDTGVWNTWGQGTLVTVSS
light: B3 light
Consider B7, for which the values for the 50% effective concentration (EC50) with CD47 and with human PD-1 were 0.804 nM and 3.25 nM, respectively.

B8: bispecific antibody PD1a-E-LN (bispecific antibody)
heavy: not shown
light: EVQLVESGGGLVQPGGSLRLSCAVSGNIYNRNFMGWFRQAPGKGREGVSAIYTGTSRTYYADSVKGRFTISRDNAKNTVYLQMNSLRPEDTAVYYCAADLRDGFWDTGVWNTWGQGTLVTVSSEPKSSDKTHTSPPSPEIVLTQSPATLSLSPGERATLSCRASENVGTYISWYQQKPGQAPRLLIYGASNRYTGIPARFSGSGSGTDFTLTISSLEPEDFAVYYCGESYGHLYTFGGGTKVEIKRTVAAPSVFIFPPSDEQLKSGTASVVCLLNNFYPREAKVQWKVDNALQSGNSQESVTEQDSKDSTYSLSSTLTLSKADYEKHKVYACEVTHQGLSSPVTKSFNRGEC
As for B8, in the assay with human PD-1, a half-maximal response (EC50) required 3.69 nM.

B9: bispecific antibody PD1b-E-LN (bispecific antibody)
heavy: not shown
light: B8 light with R45L, A75S, P88A, D102E
B9 had a 50% effective concentration (EC50) in the assay with human PD-1 of 3.02 nM.

B10: anti-CD47 monoclonal antibody (heavy chain H0 and light chain L0) (antibody, V domains shown)
VH: EVQLVQSGAEVKKPGSSVKVSCKASGYSFTHHWIHWVRQAPGQGLEWMGMIDASDSETRLSQKFKDRVTITADKSTSTAYMELSSLRSEDTAVYYCARLGRYYFDYWGQGTTVTVSS
VL: EIVLTQSPATLSLSPGERATLSCRASENVGTYISWYQQKPGQAPRLLIYGASNRYTGIPARFSGSGSGTDFTLTISSLEPEDFAVYYCGESYGHLYTFGGGTKVEIKR
B10: the figures for the EC50 with CD47 and with human PD-1 were 1.46 nM and ~4.44 nM, respectively.
